In publication PMC2929457 (Nature structural & molecular biology, 2010):

T1: His-SUMOSTAR-FANCD2(1-762) (Drosophila melanogaster) (Drosophila melanogaster, UniProt Q8MYL1 1-762)
T1 sequence (looked up): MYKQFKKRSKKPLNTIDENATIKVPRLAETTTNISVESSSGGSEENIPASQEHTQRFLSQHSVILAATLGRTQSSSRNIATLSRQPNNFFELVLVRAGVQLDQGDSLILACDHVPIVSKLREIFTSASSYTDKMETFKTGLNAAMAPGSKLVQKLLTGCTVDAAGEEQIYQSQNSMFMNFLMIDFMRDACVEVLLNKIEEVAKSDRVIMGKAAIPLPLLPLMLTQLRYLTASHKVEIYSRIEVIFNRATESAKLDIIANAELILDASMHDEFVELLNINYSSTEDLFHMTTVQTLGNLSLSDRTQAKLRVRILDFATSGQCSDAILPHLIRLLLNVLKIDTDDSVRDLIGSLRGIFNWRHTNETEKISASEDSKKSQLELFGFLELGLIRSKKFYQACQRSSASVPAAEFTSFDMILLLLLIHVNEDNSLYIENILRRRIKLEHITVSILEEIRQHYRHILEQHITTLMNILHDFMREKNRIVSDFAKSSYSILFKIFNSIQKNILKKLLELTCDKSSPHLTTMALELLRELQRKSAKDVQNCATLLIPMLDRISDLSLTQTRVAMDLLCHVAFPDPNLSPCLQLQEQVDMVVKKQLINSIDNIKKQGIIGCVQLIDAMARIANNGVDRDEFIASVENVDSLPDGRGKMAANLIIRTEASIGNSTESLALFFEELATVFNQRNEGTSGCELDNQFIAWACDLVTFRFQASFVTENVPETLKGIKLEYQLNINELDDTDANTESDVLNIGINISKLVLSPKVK


Target: T1, His-SUMOSTAR-FANCD2(1-762) (Drosophila …)
Test: pull-down

| Binder | binding result |
| --- | --- |
| Drosophila melanogaster FANCL, full length (enzyme, UniProt Q8T913 1-381, looked up) MESNEDVERLLCQKYPGLAAELQPSGACIIRGVLGSEDTWRRLKLYLPHHPALHGFQLYVQESLEYKLYTSANLKLQDDWLLEDFLDHLPKILPAQKAPTVPKELCREGNIYYDILALYKSNEYCLQVDEACSMIRFSEFTDFEQHYLELKIPSLLLLDHSLPDCVSLGEMLTKSAGNLEEALNLFRKLLEDLRPFYDNFMDIDELCHVLQPSPISSKHKTRLFPLKDRVYLKLTIADPFACIASMSLKIIGPTEEVARLRHVLSDGLSNWDSEMNIHKNLLRMFDLCYFPMPDWSDGPKLDEEDNEELRCNICFAYRLDGGEVPLVSCDNAKCVLKCHAVCLEEWFKTLMDGKTFLEVSFGQCPFCKAKLSTSFAALLND | binds |
| FANCL DRWD-RING (residues 105-381) (domain or fragment, Drosophila melanogaster, UniProt Q8T913 105-381, looked up) LCREGNIYYDILALYKSNEYCLQVDEACSMIRFSEFTDFEQHYLELKIPSLLLLDHSLPDCVSLGEMLTKSAGNLEEALNLFRKLLEDLRPFYDNFMDIDELCHVLQPSPISSKHKTRLFPLKDRVYLKLTIADPFACIASMSLKIIGPTEEVARLRHVLSDGLSNWDSEMNIHKNLLRMFDLCYFPMPDWSDGPKLDEEDNEELRCNICFAYRLDGGEVPLVSCDNAKCVLKCHAVCLEEWFKTLMDGKTFLEVSFGQCPFCKAKLSTSFAALLND | binds |
